These results are taken from PMC5509884, “Dampened activity of ryanodine receptor channels in mutant skeletal muscle lacking TRIC‐A” (The Journal of Physiology, 2017).

The data set concerns the molecule itself. Kind of data set: SDS-PAGE immunoblot of the purified protein; anti-PA tag immunoblot of the fractions of the PA-tag column purification of recombinant TRIC-A from CHO cells (buffers with 0.1% DM); bands marked as monomer, dimer and trimer. (Immunoblotting shows a protein as a band on a membrane.)

B1: mouse TRIC-A (type A trimeric intracellular cation channel), full length, with an N-terminal PA-tag (natural protein, UniProt Q3TMP8 1-298, looked up)
chain: MDLMSALSLGELALSFSRVPLFPVFDLSYFIVSIIYLKYEPGAVELSRRHPVASWLCAMLHCFGSYILADLLLGEPIIDYFSNSSSILLASGVWYLIFFCPLDLFYKCVCFLPVKLIFVAMKEVVRVRKIAVGIHHAHHHYHHGWFIMIATGWVKGSGVALLSNVEQLLRGVWKPETNEILHMSFPTKASLYGAILFTLQQTRWLPVSKASLIFVFTMFMVSCKVFLTATHSHSSPFDILEGYICPVLFGATWGGDHHHDNHGAPHGMGLGTQHSGLPAKAKEELGEGSRKKKTKKAD
notes: TRIC-A (trimeric intracellular cation channel type A), mouse, full-length cDNA; The introduction says, citing other work, that TRIC channels are trimers of three monomers of about 30 kDa; also called purified TRIC-A; recombinant TRIC-A; not shown: PA-tag, N-terminal, kept
Take B1: the binding result is “binds”.
